# Reference: PMC8827053 (RSC Chemical Biology, 2021)
# Experiments:
# Assay type in all cases: cell-based
# SH-SY5Y cells [1] = experiment: Neuronal rescue from Aβ42-induced toxicity; conditions: Aβ42 10 μM preincubated 48 h pH 7.4, 24 h treatment, Alamar blue
# SH-SY5Y cells [2] = experiment: Membrane toxicity immunocytochemistry; conditions: Aβ42 10 μM, 3 h, pH 7.4, OC antibody, confocal
# SH-SY5Y cells [3] = experiment: Live/dead assay; conditions: Aβ42 10 μM, 24 h, calcein-AM/propidium iodide, ImageJ analysis
substance,measurement,setting,value
"Aβ42: Amyloid beta 42 peptide, the most toxic form of Aβ (PDB: 1Z0Q)",Cell viability with Aβ42 alone,SH-SY5Y cells [1],~64%
same,"Total area covered by red fluorescence-labelled Aβ aggregates, Aβ42 alone",SH-SY5Y cells [2],12.3%
same,"Dead cells, Aβ42 alone",SH-SY5Y cells [3],~36%
